Source: patent publication US20220387487A1, “COMPOSITIONS AND METHODS FOR TREATMENT OF CANCER” (Aleta Biotherapeutics Inc., priority 2019, published 2022)
Substitutions are numbered along the chain they refer to. In names and notes the source's numbering stands.

B1: W264S: CD19 variant (protein)
chain: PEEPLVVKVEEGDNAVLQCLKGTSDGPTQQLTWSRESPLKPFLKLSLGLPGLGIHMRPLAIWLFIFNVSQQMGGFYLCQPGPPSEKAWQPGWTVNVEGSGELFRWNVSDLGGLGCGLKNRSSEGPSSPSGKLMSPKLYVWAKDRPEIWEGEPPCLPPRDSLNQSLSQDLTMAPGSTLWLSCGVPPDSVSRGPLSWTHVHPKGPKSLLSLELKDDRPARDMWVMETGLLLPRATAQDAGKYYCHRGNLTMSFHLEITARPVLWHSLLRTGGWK
B2: V260R: CD19 variant (protein)
chain: B1 chain with V260R, S264W
B3: W262R: CD19 variant (protein)
chain: B1 chain with W262R, S264W
B4: G269I: CD19 variant (protein)
chain: B1 chain with S264W, G269I
B5: L59E: CD19 variant (protein)
chain: B1 chain with L59E, S264W
B6: G226T: CD19 variant (protein)
chain: B1 chain with G226T, S264W
B7: K212A: CD19 variant (protein)
chain: B1 chain with K212A, S264W
B8: A257K: CD19 variant (protein)
chain: B1 chain with A257K, S264W
B9: A232V: CD19 variant (protein)
chain: B1 chain with A232V, S264W
B10: R57G: CD19 variant (protein)
chain: B1 chain with R57G, S264W
B11: W264N: CD19 variant (protein)
chain: B1 chain with S264N
B12: V260K: CD19 variant (protein)
chain: B1 chain with V260K, S264W
B13: W262Q: CD19 variant (protein)
chain: B1 chain with W262Q, S264W
B14: W262S: CD19 variant (protein)
chain: B1 chain with W262S, S264W
B15: W262G: CD19 variant (protein)
chain: B1 chain with W262G, S264W
B16: V16F: CD19 variant (protein)
chain: B1 chain with V16F, S264W
B17: W264D: CD19 variant (protein)
chain: B1 chain with S264D
B18: W264T: CD19 variant (protein)
chain: B1 chain with S264T
B19: W264R: CD19 variant (protein)
chain: B1 chain with S264R
B20: G269L: CD19 variant (protein)
chain: B1 chain with S264W, G269L
B21: W264A: CD19 variant (protein)
chain: B1 chain with S264A
B22: Y240W: CD19 variant (protein)
chain: B1 chain with Y240W, S264W
B23: W264P: CD19 variant (protein)
chain: B1 chain with S264P
B24: H243T: CD19 variant (protein)
chain: B1 chain with H243T, S264W
B25: V16W: CD19 variant (protein)
chain: B1 chain with V16W, S264W
B26: W262D: CD19 variant (protein)
chain: B1 chain with W262D, S264W
B27: F64G: CD19 variant (protein)
chain: B1 chain with F64G, S264W
B28: F64V: CD19 variant (protein)
chain: B1 chain with F64V, S264W
B29: W262A: CD19 variant (protein)
chain: B1 chain with W262A, S264W
B30: M223T: CD19 variant (protein)
chain: B1 chain with M223T, S264W
B31: L59G: CD19 variant (protein)
chain: B1 chain with L59G, S264W
B32: W264G: CD19 variant (protein)
chain: B1 chain with S264G
B33: W264K: CD19 variant (protein)
chain: B1 chain with S264K
B34: W264Q: CD19 variant (protein)
chain: B1 chain with S264Q
B35: G226S: CD19 variant (protein)
chain: B1 chain with G226S, S264W
B36: I255V: CD19 variant (protein)
chain: B1 chain with I255V, S264W
B37: W62E: CD19 variant (protein)
chain: B1 chain with W62E, S264W
B38: K212S: CD19 variant (protein)
chain: B1 chain with K212S, S264W
B39: L261K: CD19 variant (protein)
chain: B1 chain with L261K, S264W
B40: W262E: CD19 variant (protein)
chain: B1 chain with W262E, S264W
B41: W262H: CD19 variant (protein)
chain: B1 chain with W262H, S264W
B42: L59S: CD19 variant (protein)
chain: B1 chain with L59S, S264W
B43: L228V: CD19 variant (protein)
chain: B1 chain with L228V, S264W
B44: R215W: CD19 variant (protein)
chain: B1 chain with R215W, S264W
B45: W262P: CD19 variant (protein)
chain: B1 chain with W262P, S264W
B46: L20G: CD19 variant (protein)
chain: B1 chain with L20G, S264W
B47: A257R: CD19 variant (protein)
chain: B1 chain with A257R, S264W
B48: F66R: CD19 variant (protein)
chain: B1 chain with F66R, S264W
B49: V260S: CD19 variant (protein)
chain: B1 chain with V260S, S264W

Test system: FMC63
Test: CD19 variant binding to anti-CD19 antibody FMC63 (score)
Details: Table 1A, CD19 single mutants (positions of SEQ ID NO:2)

Sequence of FMC63 (as listed by the source): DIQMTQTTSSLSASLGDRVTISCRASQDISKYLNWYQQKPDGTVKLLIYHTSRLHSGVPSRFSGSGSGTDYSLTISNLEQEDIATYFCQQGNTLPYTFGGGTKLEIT
Sequence of FMC63 (as listed by the source): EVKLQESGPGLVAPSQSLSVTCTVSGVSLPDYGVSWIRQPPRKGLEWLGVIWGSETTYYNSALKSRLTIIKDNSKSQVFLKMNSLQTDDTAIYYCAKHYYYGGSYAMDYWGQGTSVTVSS

Row | Molecule | FMC63 Binding Score
1 | B1 | 7.6 ± .5
2 | B2 | 6.7 ± .3
3 | B3 | 7.4 ± .3
4 | B4 | 6.7 ± .8
5 | B5 | 6.3 ± .5
6 | B6 | 7.3 ± .6
7 | B7 | 6.1 ± .6
8 | B8 | 6.1 ± .5
9 | B9 | 6.3 ± .2
10 | B10 | 5.7 ± .2
11 | B11 | 9. ± 1.3
12 | B12 | 7.5 ± .7
13 | B13 | 6.8 ± .6
14 | B14 | 7. ± .3
15 | B15 | 6.4 ± .2
16 | B16 | 7. ± 1.
17 | B17 | 6.2 ± .6
18 | B18 | 7.2 ± .8
19 | B19 | 6.9 ± .3
20 | B20 | 6.1 ± .4
21 | B21 | 6.3 ± .5
22 | B22 | 6.3 ± .3
23 | B23 | 8.6 ± 1.5
24 | B24 | 7.1 ± .9
25 | B25 | 6.7 ± 1.

Row | Molecule | FMC63 Binding Score
26 | B26 | 8.3 ± .8
27 | B27 | 6. ± .2
28 | B28 | 6. ± .4
29 | B29 | 6.9 ± .5
30 | B30 | 6.7 ± .4
31 | B31 | 6.5 ± .3
32 | B32 | 7.2 ± .3
33 | B33 | 8. ± 1.
34 | B34 | 7.4 ± .8
35 | B35 | 6.1 ± .4
36 | B36 | 6.4 ± .4
37 | B37 | 6.4 ± .7
38 | B38 | 6.8 ± .6
39 | B39 | 6.2 ± .6
40 | B40 | 6.9 ± .3
41 | B41 | 6.7 ± 1.
42 | B42 | 6.4 ± .4
43 | B43 | 7.4 ± .4
44 | B44 | 7.1 ± 1.1
45 | B45 | 7.4 ± .7
46 | B46 | 5.7 ± .2
47 | B47 | 6.1 ± .5
48 | B48 | 6. ± .3
49 | B49 | 5.8 ± .3
